Results as given in paper PMC3170320, “Minimal Antizyme Peptide Fully Functioning in the Binding and Inhibition of Ornithine Decarboxylase and Antizyme Inhibitor” (PLoS ONE, 2011).

Key:
human AZI = experiment: AZ peptide-AZI complex size distribution by analytical ultracentrifugation; format: binding; conditions: Table 2
Procedure: A Beckman Optima XL-A analytical ultracentrifuge was used for sedimentation velocity experiments. Reference and sample sectors in the centerpiece were filled with buffer (400 µl) and sample protein (0.3 mg/mL, 380 µl), respectively, and then the cell was built up in an An-50 Ti rotor. Sedimentation velocity experiments were performed at 20°C with a rotor speed of 42,000 rpm. The data were traced by absorbance at 280 nm in continuous mode, with a time interval of 420 s and a step size of 0.002 cm. A total of 20–30 scans at different time points were collected and fitted to a continuous size distribution model using the program SEDFIT [54]–[55]. All size distributions were calculated at 0.1 to 20 S with a confidence level of p = 0.95 and a resolution N of 200.
In order to determine the dissociation constants (K d) of the AZ peptide-ODC and AZ peptide-AZI complexes, sedimentation velocity experiments were performed at different concentrations of AZ or AZ peptide with a constant concentration of human ODC or AZI. The K d values of the AZ peptide-ODC and AZ peptide-AZI complexes were calculated by a global fitting of all sedimentation data in the AB hetero-association model in the SEDPHAT program [56]–[57]. The partial specific volumes of the proteins, the solvent densities, and the viscosity were calculated by the SEDNTERP program. […]

AZ = conditions: ref [20], [46]–[48]; cited from earlier work
Description: Another protein that regulates ODC by binding to AZ is called antizyme inhibitor (AZI). AZI is homologous to ODC, but lacks ODC enzymatic activity, [43]–[46]. […] AZI can bind to all isoforms of mammalian AZ [32], [42].

AZ peptide-inhibited ODC = experiment: Rescue of AZ-inhibited ODC enzyme activity by AZI; format: biochemical, human; conditions: Figure 4
Procedure: Figure 4 Relative ODC enzyme activities in the presence of AZ and AZI. ODC enzymes equilibrated with equimolar AZI were inhibited by various concentrations of AZ peptides. The concentrations of AZI and ODC were fixed at 18.9 µg/mL and 20 µg/mL, respectively (the ratio of AZI monomer versus ODC monomer was fixed at 1). Panels A–H show the inhibition curves of ODC for each AZ peptide in the absence (closed circles) and in the presence (open circles) of AZI.
For enzyme rescue experiments with AZI, the ODC enzyme was first pre-incubated with AZ at a molar ratio of 3.5 AZ monomers to 1 ODC monomer to achieve 80% enzyme inhibition. The inhibited ODC activity was recovered by increasing the AZI concentration.

ODC degradation = conditions: cited from earlier work
Description: (§1) There are at least four AZ isozymes with different binding affinities for ODC [31]–[32]. Isoform 1, AZ-1, is present in all tissues and is the major isoform that participates in ODC degradation. […] The C-terminal region of AZ-1 interacts with ODC to inhibit enzyme activity, and the N-terminal region of AZ-1 controls the degradation of ODC [34]–[36]. AZ-2 has a distribution similar to that of AZ-1 in all of the tissues and cells examined thus far, but its expr ...

ODC = conditions: cited from earlier work
Description: as §1

B1: Antizyme inhibitor (protein)
chain: MKGFIDDANYSVGLLDEGTNLGNVIDNYVYEHTLTGKNAFFVGDLGKIVKKHSQWQNVVAQIKPFYTVKCNSAPAVLEILAALGTGFACSSKNEMALVQELGVPPENIIYISPCKQVSQIKYAAKVGVNILTCDNEIELKKIARNHPNAKVLLHIATEDNIGGEEGNMKFGTTLKNCRHLLECAKELDVQIIGVKFHVSSACKESQVYVHALSDARCVFDMAGEIGFTMNMLDIGGGFTGTEFQLEEVNHVISPLLDIYFPEGSGVKIISEPGSYYVSSAFTLAVNIIAKKVVENDKFPSGVEKTGSDEPAFMYYMNDGVYGSFASKLSEDLNTIPEVHKKYKEDEPLFTSSLWGPSCDELDQIVESCLLPELNVGDWLIFDNMGADSFHEPSAFNDFQRPAIYYMMSFSDWYEMQDAGITSDSMMKNFFFVPSCIQLSQEDSFSAEA
modifications: left off: His6, N-terminal, state not stated
Affinity of AZI for AZ peptides versus ODC (in words) (human AZI): can bind to AZ peptides with a higher affinity than ODC | Affinity of AZI for AZ (AZ): binds to AZ with a higher affinity than ODC | Rescue of ODC enzyme activity by AZI (in words) (AZ peptide-inhibited ODC): can rescue AZ peptide-inhibited ODC enzyme activity

B2: AZ-3: AZ isozyme 3, germ cells of testes (protein, UniProt Q9UMX2 1-235, looked up)
Ornithine decarboxylase …: MPCKRCRPSVYSLSYIKRGKTRNYLYPIWSPYAYYLYCYKYRITLREKMLPRCYKSITYKEEEDLTLQPRSCLQCSESLVGLQEGKSTEQGNHDQLKELYSAGNLTVLATDPLLHQDPVQLDFHFRLTSQTSAHWHGLLCDRRLFLDIPYQALDQGNRESLTATLEYVEEKTNVDSVFVNFQNDRNDRGALLRAFSYMGFEVVRPDHPALPPLDNVIFMVYPLERDVGHLPSEPP
ODC degradation, AZ-3 (ODC degradation; ref [41]): fails to stimulate ODC degradation | Inhibition of ODC activity, AZ-3 (ODC; ref [41]): poorly inhibits ODC activity

B3: AZ-2: AZ isozyme 2, distribution similar to AZ-1, lower expression level (protein, UniProt O95190 1-189, looked up)
Ornithine decarboxylase …: MINTQDSSILPLSNCPQLQCCRHIVPGPLWCSDAPHPLSKIPGGRGGGRDPSLSALIYKDEKLTVTQDLPVNDGKPHIVHFQYEVTEVKVSSWDAVLSSQSLFVEIPDGLLADGSKEGLLALLEFAEEKMKVNYVFICFRKGREDRAPLLKTFSFLGFEIVRPGHPCVPSRPDVMFMVYPLDQNLSDED
ODC degradation, AZ-2 (ODC degradation; ref [38]–[39]): does not promote ODC degradation | Inhibition of ODC activity, AZ-2 (ODC; ref [38]–[39]): can inhibit ODC enzyme activity
